Assay results from US20250002962.

How the values were obtained:
[1] = target: BSA, P02769
[2] = target: rS1 domain 1 (S1 D1), P0AG67
[3] = target: rS1 domain 2 (S1 D2), P0AG67
[4] = target: rS1 domain 2 R139A (S1 D2 R139A), P0AG67
[5] = target: rS1 domain 2 R139K (S1 D2 R139K), P0AG67
[6] = target: rS1 domain 3 (S1 D3), P0AG67
[7] = target: rS1 domain 4 (S1 D4), P0AG67
[8] = target: rS1 domain 5 (S1 D5), P0AG67
[9] = target: rS1 domain 6 (S1 D6), P0AG67
[10] = target: ribosomal protein S1 (rS1), P0AG67

BSA, P02769, sequence (P02769 25-607): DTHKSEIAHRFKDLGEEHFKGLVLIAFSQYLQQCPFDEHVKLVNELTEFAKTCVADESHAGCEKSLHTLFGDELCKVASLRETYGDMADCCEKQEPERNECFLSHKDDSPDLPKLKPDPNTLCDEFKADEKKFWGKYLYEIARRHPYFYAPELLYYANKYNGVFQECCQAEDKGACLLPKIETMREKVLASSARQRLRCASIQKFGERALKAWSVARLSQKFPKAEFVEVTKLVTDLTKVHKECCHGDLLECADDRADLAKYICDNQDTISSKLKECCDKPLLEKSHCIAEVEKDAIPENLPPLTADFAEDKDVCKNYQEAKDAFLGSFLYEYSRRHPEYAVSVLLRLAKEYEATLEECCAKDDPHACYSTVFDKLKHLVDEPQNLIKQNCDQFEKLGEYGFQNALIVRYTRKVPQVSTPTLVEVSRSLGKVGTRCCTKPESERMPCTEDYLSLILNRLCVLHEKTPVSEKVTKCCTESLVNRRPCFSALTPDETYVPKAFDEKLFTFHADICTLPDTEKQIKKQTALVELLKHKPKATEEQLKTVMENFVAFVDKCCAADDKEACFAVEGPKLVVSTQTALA

B1: ADP-ribosyltransferase ModB from Escherichia virus T4 (cloned ModB with His6 tag) (protein)
chain: MGIINLADVEQLSIKAESVDFQYDMYKKVCEKFTDFEQSVLWQCMEAKKNEALHKHLNEIIKKHLTKSPYQLYRGISKSTKELIKDLQVGEVFSTNRVDSFTTSLHTACSFSYAEYFTETILRLKTDKAFNYSDHISDIILSSPNTEFKYTYEDTDGLDSERTDNLMMIVREQEWMIPIGKYKITSISKEKLHDSFGTFKVYDIEVVELVPRGSLEHHHHHH
in vitro RNAylation and ADP-ribosylation (SDS-PAGE) [1]: control proteins without S1 domain (BSA, NudC inactive quadruple mutant) were not
RNAylation assay with single S1 domains [2]: rS1 D1, D3, D4 and D5 domains were modified to a much lesser extent
RNAylation assay with single S1 domains [3]: For rS1 domains D2 and D6 high RNAylation signals were determined
RNAylation with 5'-NXD-10mer-Cy5 RNAs (Tricine gel, band shift) [3]: rS1 DII was RNAylated in the presence of 5'-NXD-RNAs by ModB
ADP-ribosylation level of D2 [4]: the ADP-ribosylation level of D2 is dramatically reduced if R139 is substituted by alanine or lysine
ADP-ribosylation level of D2 [5]: the ADP-ribosylation level of D2 is dramatically reduced if R139 is substituted by alanine or lysine
RNAylation assay with single S1 domains [6]: rS1 D1, D3, D4 and D5 domains were modified to a much lesser extent
RNAylation assay with single S1 domains [7]: rS1 D1, D3, D4 and D5 domains were modified to a much lesser extent
RNAylation assay with single S1 domains [8]: rS1 D1, D3, D4 and D5 domains were modified to a much lesser extent
RNAylation assay with single S1 domains [9]: For rS1 domains D2 and D6 high RNAylation signals were determined
RNAylation of rS1 with 32P-labelled 5'-NAD-RNA 8mer (SDS-PAGE, autoradiography) [10]: ModB rapidly RNAylated its known target, ribosomal protein S1 (rS1) without detectable self-RNAylation
